According to patent US20260209320A1 (ALCHEMAB THERAPEUTICS, published 2026):
Where no end group is shown, it is not given here.

How the values were obtained:
[1] = target: T1, biotinylated GYSLPQPQPPPPPPPPPP peptide (also: biotinylated, position not given here); experiment: BLI (Octet), biotinylated peptide on streptavidin biosensor
T1 construct: also called HTT exon1 in the form of biotinylated peptide
T1 peptide: GYSLPQPQPPPPPPPPPP

[2] = target: T2, Mutant Human HTT Exon 1 48Q (GST) (human); experiment: HTT sandwich ELISA, experiment 2 (400 nM starting concentration)
T2 construct: recombinant His- and GST-tagged fusion; also called HTT Exon 1 Q48; 48Q HTT Exon-1

[3] = target: T2, Mutant Human HTT Exon 1 48Q (GST); experiment: HTT sandwich ELISA, experiment 1 (133 nM starting concentration)
[4] = target: T2, Mutant Human HTT Exon 1 48Q (GST); experiment: ELISA
[5] = target: T2, Mutant Human HTT Exon 1 48Q (GST); experiment: HTT sandwich ELISA
[6] = target: T2, Mutant Human HTT Exon 1 48Q (GST); experiment: HTT sandwich ELISA; remark: listed apart in the source
human lysozyme = target: T3, human lysozyme (human, UniProt P61626 19-148); experiment: direct ELISA
T3 sequence (looked up): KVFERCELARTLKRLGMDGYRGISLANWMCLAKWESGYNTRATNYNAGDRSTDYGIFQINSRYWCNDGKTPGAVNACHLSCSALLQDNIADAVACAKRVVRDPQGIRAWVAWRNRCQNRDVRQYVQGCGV

T2 sequence (chain, as listed by the source mutant limits assumed): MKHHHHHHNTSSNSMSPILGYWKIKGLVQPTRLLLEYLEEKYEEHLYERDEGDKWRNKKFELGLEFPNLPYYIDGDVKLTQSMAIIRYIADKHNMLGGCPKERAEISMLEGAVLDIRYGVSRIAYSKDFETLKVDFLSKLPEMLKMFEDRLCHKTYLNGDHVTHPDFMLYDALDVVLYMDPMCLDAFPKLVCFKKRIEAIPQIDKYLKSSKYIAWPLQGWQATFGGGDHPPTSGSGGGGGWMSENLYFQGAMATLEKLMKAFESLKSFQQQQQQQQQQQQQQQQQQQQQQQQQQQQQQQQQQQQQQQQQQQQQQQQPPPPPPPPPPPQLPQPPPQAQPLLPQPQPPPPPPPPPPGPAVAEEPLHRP

B1: ATL_0006195 (antibody, V domains shown)
VH: EVQLVESGGGLVKPGGSLRLSCAASGFTFNKAWMSWVRQAPGKGLEWVGRIKSGIDAGTTDYAAPVKGRFTISRDDSKNTLYLQMNSLKTEDTAVYYCTPPPYYYYYGLDVWGQGTTVTVSS
VL: QSALTQPRSVSGSPGQSVTISCTGTSSDVGSYNLVSWYQQHPGKAPKLMIYEVNKRPSGVPDRFSGSKSGATASLTISGLQAEDEADYYCGSYAGTANVFGTGTKVTVL
notes: expressed in IgG1 format; also called ATL_6195
- binding result [1]: binds
- EC50 [2]: 0.0147 µM
- EC50 [3]: 0.0211 µM

B2: ATL_0006194 (antibody, V domains shown)
VH: EVQLVESGGGLVKPGGSLRLSCAASGFTFNKAWMSWVRQAPGKGLEWVGRIKSGIDAGTTDYAAPVKGRFTISRDDSKNTLYLQMNSLKTEDTAVYYCVPPPYYYYYGLDVWGQGTTVTVSS
VL: QSALTQPRSVSGSPGQSVTISCTGTSSDVGSYNLVSWYQQHPGKAPKLMIYEVNKRPSGVPDRFSGSKSGATASLTISGLQAEDEADYYCVSYAGTANVFGTGTKVTVL
notes: expressed in IgG1 format; also called ATL_6194; ATL6194
- binding result [1]: binds
- EC50 [2]: 0.014 µM
- EC50 [3]: 0.0198 µM

B3: ATL_0005334 (antibody, V domains shown)
VH: EVQLVESGGGLVKPGGSLRLSCAASGFTFNKAWMNWVRQAPGKGLEWVGRIKSGIDGGTTDYAAPVQGRFTISRDDSKNTVYLQMNSLNTEDTAVYYCIPPPYYYYYGLDVWGQGTTVTVSS
VL: QSALTQPASVSGSPGQSITISCTGTSSDVGGYKLVSWYQQHPGRAPKLMIYEVSKRPSGVSSRFSGSKSGSTASLTISGLQAEDEADYYCCSYAGSSVVFGGGTKLTVL
notes: human IgG1; also called ATL_5334
- binding result [4]: binds

B4: ATL_0006183 (antibody, V domains shown)
VH: EVQLVESGGGLVKPGGSLRLSCAASGFTFNKAWMSWVRQAPGKGLEWVGRIKSGIDAGTTDYAAPVKGRFTISRDDSKNTLYLQMNSLKTEDTAVYYCTPPPYYYYGLDVWGQGTTVTVSS
VL: QSALTQPRSVSGSPGQSVTISCTGTSSDVGSYNLVSWYQQHPGKAPKLMIYEVNKRPSGVPDRFSGSKSGATASLTISGLQAEDEADYYCGSYAGTANVFGTGTKVTVL
notes: HD patient (ENBB) HCDR3 in ATL5895 VH, ATL5895 VL; also called ATL_6183; ATL6183
- EC50 [5]: 0.0092 µM

B5: ATL_0006200 (antibody, V domains shown)
VH: EVQLVESGGGLVKPGGSLRLSCAASGFTFNKAWMSWVRQAPGKGLEWVGRIKSGIDAGTTDYAAPVKGRFTISRDDSKNTLYLQMNSLKTEDTAVYYCVPPPYYYYYGLDVWGQGTTVTVSS
VL: QSALTQPRSVSGSPGQSVTISCTGTSSDVGSYNLVSWYQQHPGKAPKLMIYEVNKRPSGVPDRFSGSKSGATASLTISGLQAEDEADYYCGSYAGTANVFGTGTKVTVL
notes: expressed in IgG1 format; also called ATL_6200
- binding result [1]: binds
- EC50 [2]: 0.00975 µM
- EC50 [3]: 0.0128 µM

B6: ATL_0006185 (antibody, V domains shown)
VH: EVQLVESGGGLVKPGGSLRLSCAASGFTFNKAWMSWVRQAPGKGLEWVGRIKSGIDAGTTDYAAPVKGRFTISRDDSKNTLYLQMNSLKTEDTAVYYCTPPPYYYYGLNVWGQGTTVTVSS
VL: QSALTQPRSVSGSPGQSVTISCTGTSSDVGSYNLVSWYQQHPGKAPKLMIYEVNKRPSGVPDRFSGSKSGATASLTISGLQAEDEADYYCGSYAGTANVFGTGTKVTVL
notes: HD patient (ENBB) HCDR3 in ATL5895 VH, ATL5895 VL; also called ATL_6185; ATL6185
- EC50 [5]: 0.00731 µM

B7: ATL_0006204 (antibody, V domains shown)
VH: EVQLVESGGGLVKPGGSLRLSCAASGFTFNKAWMSWVRQAPGKGLEWVGRIKSGIDAGTTDYAAPVKGRFTISRDDSKNTLYLQMNSLKTEDTAVYYCIPPPYYYYYGLDVWGQGTTVTVSS
VL: QSALTQPRSVSGSPGQSVTISCTGTSSDVGSYNLVSWYQQHPGKAPKLMIYEVNKRPSGVPDRFSGSKSGATASLTISGLQAEDEADYYCVSFAGTANVFGTGTKVTVL
notes: expressed in IgG1 format; also called ATL_6204
- binding result [1]: binds
- EC50 [2]: 0.0122 µM
- EC50 [3]: 0.0162 µM

B8: ATL_0006203 (antibody, V domains shown)
VH: EVQLVESGGGLVKPGGSLRLSCAASGFTFNKAWMSWVRQAPGKGLEWVGRIKSGIDAGTTDYAAPVKGRFTISRDDSKNTLYLQMNSLKTEDTAVYYCIPSPYYYYYGLDVWGQGTTVTVSS
VL: QSALTQPRSVSGSPGQSVTISCTGTSSDVGSYNLVSWYQQHPGKAPKLMIYEVNKRPSGVPDRFSGSKSGATASLTISGLQAEDEADYYCVSYAGTANVFGTGTKVTVL
notes: expressed in IgG1 format; also called ATL_6203
- binding result [1]: binds
- EC50 [2]: 0.00872 µM
- EC50 [3]: 0.00891 µM

B9: ATL_0006375 (antibody, V domains shown)
VH: EVQLVESGGGLVKPGGSLRLSCAASGFTFNKAWMSWVRQAPGKGLEWVGRIKSGIDAGTTDYAAPVKGRFTISRDDSKNTLYLQMNSLKTEDTAVYYCVPPPYYYYYGLDVWGQGTTVTVSS
VL: QSALTQPRSVSGSPGQSVTISCTGTSSDVGSYNLVSWYQQHPGKAPKLMIYEVNKRPSGVPDRFSGSKSGATASLTISGLQAEDEADYYCVSYGGTENVFGTGTKVTVL
notes: also called ATL_6375
- EC50 [6]: 0.0201 µM

B10: ATL_0006374 (antibody, V domains shown)
VH: EVQLVESGGGLVKPGGSLRLSCAASGFTFNKAWMSWVRQAPGKGLEWVGRIKSGIDAGTTDYAAPVKGRFTISRDDSKNTLYLQMNSLKTEDTAVYWCVPPPYYYYYGLDVWGQGTTVTVSS
VL: QSALTQPRSVSGSPGQSVTISCTGTSSDVGSYNLVSWYQQHPGKAPKLMIYEVNKRPSGVPDRFSGSKSGATASLTISGLQAEDEADYYCVSYGGTENVFGTGTKVTVL
notes: also called ATL_6374; ATL 6374
- binding result [1]: binds
- EC50 [6]: 0.0311 µM

B11: ATL_0006205 (antibody, IgG1, V domains shown)
VH: EVQLVESGGGLVKPGGSLRLSCAASGFTFNKAWMSWVRQAPGKGLEWVGRIKSGIDAGTTDYAAPVKGRFTISRDDSKNTLYLQMNSLKTEDTAVYWCVPPPYYYYYGLDVWGQGTTVTVSS
VL: QSALTQPRSVSGSPGQSVTISCTGTSSDVGSYNLVSWYQQHPGKAPKLMIYEVNKRPSGVPDRFSGSKSGATASLTISGLQAEDEADYYCVSYAGTANVFGTGTKVTVL
notes: IgG1 format; also called ATL_6205
- binding result [1]: binds
- EC50 [2]: 0.0164 µM
- EC50 [3]: 0.0134 µM

B12: ATL_0006199 (antibody, V domains shown)
VH: EVQLVESGGGLVKPGGSLRLSCAASGFTFNKAWMSWVRQAPGKGLEWVGRIKSGIDAGTTDYAAPVKGRFTISRDDSKNTLYLQMNSLKTEDTAVYWCSPPPYYYYYGLDVWGQGTTVTVSS
VL: QSALTQPRSVSGSPGQSVTISCTGTSSDVGSYNLVSWYQQHPGKAPKLMIYEVNKRPSGVPDRFSGSKSGATASLTISGLQAEDEADYYCGSYAGTANVFGTGTKVTVL
notes: expressed in IgG1 format; also called ATL_6199
- binding result [1]: binds
- EC50 [2]: 0.0131 µM
- EC50 [3]: 0.015 µM

B13: ATL_0006376 (antibody, V domains shown)
VH: EVQLVESGGGLVKPGGSLRLSCAASGFTFNKAWMSWVRQAPGKGLEWVGRIKSGIDAGTTDYAAPVKGRFTISRDDSKNTLYLQMNSLKTEDTAVYYCVPPPFYYYYGLDVWGQGTTVTVSS
VL: QSALTQPRSVSGSPGQSVTISCTGTSSDVGSYNLVSWYQQHPGKAPKLMIYEVNKRPSGVPDRFSGSKSGATASLTISGLQAEDEADYYCVSYGGTENVFGTGTKVTVL
notes: also called ATL_6376
- binding result (human lysozyme): no binding (tested: less than 1 µM)
- EC50 [6]: 0.0115 µM

B14: ATL_0006202 (antibody, IgG1, V domains shown)
VH: EVQLVESGGGLVKPGGSLRLSCAASGFTFNKAWMSWVRQAPGKGLEWVGRIKSGIDAGTTDYAAPVKGRFTISRDDSKNTLYLQMNSLKTEDTAVYYCSPPPFYYYYGLDVWGQGTTVTVSS
VL: QSALTQPRSVSGSPGQSVTISCTGTSSDVGSYNLVSWYQQHPGKAPKLMIYEVNKRPSGVPDRFSGSKSGATASLTISGLQAEDEADYYCVSYGGTENVFGTGTKVTVL
notes: IgG1 format; also called ATL_6202
- binding result [1]: binds
- EC50 [2]: 0.0135 µM

B15: ATL_0006378 (antibody, V domains shown)
VH: EVQLVESGGGLVKPGGSLRLSCAASGFTFNKAWMSWVRQAPGKGLEWVGRIKSGIDAGTTDYAAPVKGRFTISRDDSKNTLYLQMNSLKTEDTAVYYCVPSPYYYYYGLDVWGQGTTVTVSS
VL: QSALTQPRSVSGSPGQSVTISCTGTSSDVGSYNLVSWYQQHPGKAPKLMIYEVNKRPSGVPDRFSGSKSGATASLTISGLQAEDEADYYCVSYGGTENVFGTGTKVTVL
notes: also called ATL_6378; ATL 6378
- EC50 [6]: 0.0389 µM

B16: ATL_0006377 (antibody, V domains shown)
VH: EVQLVESGGGLVKPGGSLRLSCAASGFTFNKAWMSWVRQAPGKGLEWVGRIKSGIDAGTTDYAAPVKGRFTISRDDSKNTLYLQMNSLKTEDTAVYYCVPSPYYYYYGLDVWGQGTTVTVSS
VL: QSALTQPRSVSGSPGQSVTISCTGTSSDVGSYNLVSWYQQHPGKAPKLMIYEVNKRPSGVPDRFSGSKSGATASLTISGLQAEDEADYYCVSYAGTANVFGTGTKVTVL
notes: also called ATL_6377
- binding result (human lysozyme): no binding (tested: less than 1 µM)
- EC50 [6]: 0.0238 µM

B17: ATL_0006184 (antibody, V domains shown)
VH: EVQLVESGGGLVKPGGSLRLSCAASGFTFNKAWMSWVRQAPGKGLEWVGRIKSGIDAGTTDYAAPVKGRFTISRDDSKATLYLQMNSLKTEDTAVYYCTPPPYYYYGLDVWGQGTTVTVSS
VL: QSALTQPASVSGSPGQSITISCTGTSSDVGGYKLVSWYQQHPGRAPKLMIYEVSKRPSGVSSRFSGSKSGSTASLTISGLQAEDEADYYCSSYAGSSVVFGGGTKLTVL
notes: HD patient (ENBB) HCDR3 in ATL5901 VH, ATL5901 VL; also called ATL_6184; ATL6184
- EC50 [5]: 0.0101 µM

B18: ATL_0006186 (antibody, V domains shown)
VH: EVQLVESGGGLVKPGGSLRLSCAASGFTFNKAWMSWVRQAPGKGLEWVGRIKSGIDAGTTDYAAPVKGRFTISRDDSKATLYLQMNSLKTEDTAVYYCTPPPYYYYGLNVWGQGTTVTVSS
VL: QSALTQPASVSGSPGQSITISCTGTSSDVGGYKLVSWYQQHPGRAPKLMIYEVSKRPSGVSSRFSGSKSGSTASLTISGLQAEDEADYYCSSYAGSSVVFGGGTKLTVL
notes: HD patient (ENBB) HCDR3 in ATL5901 VH, ATL5901 VL; also called ATL_6186; ATL6186
- EC50 [5]: 0.0111 µM
